From the DeepSol protein solubility set

test: soluble on expression in E. coli; label from the status in PepcDB or PDB records

| Sequence | soluble on expression in E. coli |
| --- | --- |
| MSLSGETELTFWTFSGLHEQFYVEMVKEWNKKYPDRKIKLNTVVYPYGQMHDNLSISLIAGEGVPDIADVELARFSNFLKGSDIPLADLTPLIEKDRDKFVEARLTLYSKNGKLYGLDTHVGTTVMFYNMDVMKKAGVNPDDIKTWDDYHKAGQKVRKVTGKPMGTVETNDSATFLSMISQQNSGYFDKNGKLILNNDTNVKTLQYLKDMINDKTMIPAPGGGHHSEEYYGFMNQGGAASVLMPIWYMGRFIDYMPDLKGKIAIRPLPAWKEGGDRSAGLGGTATVVPKQSKHVELAKEFLAFAKGSEEGNKKLWSVLGFDPLRWDVWSSKELKEKNKYTDYFQNGTGIFSVLLDIKDEINPIYLHEDFAKASDLVNRSVLFDALKSQQKTPKQALDRAAGELKQKEGHHHHHH | soluble |
| MGSDKIHHHHHHMQPSAVTNTTNLTASPSQFYTWQNYRCTYEIHQPTNTTSEGIPLLLIHPIGVGLSRQFWQRFCHEWYNSGQRNSIYNPDLLGCGESDMPHLAYTPSDWAEQLQYFLQTVVRQPVIVVVQGALLPVAIALVQKESNLISRLVLSGPPTWALMTNKPPEWQQKFIWNVLDSPLGIPFYRYARTPKFLRSFSTRQLFASESAVDAEWLNTLVAGAENPASRHAVFSFLAGFWRQDYTNFMASIQQPTLAVVGETASSISQNNKKETPDDRLANYLACFPQSRGIKINGRNVLPYESTAEFVAAIAPFINEVS | not soluble |
| MGSDKIHHHHHHMKILICDDDSSITQSLSLIIKTYFNKKKVNNLDIVTFNDGDSLLSDKSQKDIIFLDIEMPGFDGIYVGNELKKQNDSVIIFIVTSYLEYLDAAMRFHVFRYLSKPIDKQRLFQNLDDALELYYSINQKIAVETKYGVTSVLTCDIVYVEAKGRKVIVHTATADLDSTQTLQFWIEHLPQATFFQSHRSYIVNMAMVTSFDHELIYLCDGQFTAYLTRRKFTEFKRAYLMFMESKR | not soluble |
| NTTHAYVHASPPHSVPIAGASTAAVTHQQATQLKGTDELYGLGNLPSSGPGRWEYLANPENWHPERRKLHEKLLDEARSSALTLAESLERDGCQPTLFALRGNTATGKTRIATKKIPALAAALEKTGGKGCINPDVFKSSLAKSEAGAKIFSSAQVHNESCFLADHFEDGLRSQRTGSGAIASIVVDKRLARAYEIDSYIELAKETGRKVELCDIDAPLENSLTGVLQRKPEGEDPRPPYPVVSSGFVAVRSNRMSVIDRFIADPSLGNYRLFGTAEDGKKVMVASVMGGELSVEDADLYEKITSPQSSVTGDLADKIIDNELIDRLTNNIDDPERAANTRAALEKYNGKSWSAALAAHSELI | not soluble |
| MTGVVTASKGLNVRKEANTSSQIIGILNSGESVEIIGEENGFYKITYKGQEAYASKNYINIFDGNSLEHHHHHH | not soluble |
| MHHHHHHSSGVDLGTENLYFQSMENRELTYITNSIAEAQRVMAAMLADERLLATVRKVADACIASIAQGGKVLLAGNGGSAADAQHIAGEFVSRFAFDRPGLPAVALTTDTSILTAIGNDYGYEKLFSRQVQALGNEGDVLIGYSTSGKSPNILAAFREAKAKGMTCVGFTGNRGGEMRELCDLLLEVPSADTPKIQEGHLVLGHIVCGLVEHSIFGKQ | soluble |
| GAMGMESLFPNKGEIIRELLKDPLILKNDSKRSNGSELELDSSDLLQREAILANELNILDNLKTFLNLIKEVKTNLNILELENCYYSLQSLRKKMRNNAAYLKQSFNFQQSISTYVDTLHLELVSTLYKILTNGFWKITENSIQFTPTVEWGKDKVHIEYDTFMDFVAQQYFPKGSLDNQAWFILDMTSADSQEQVRAKLNTIMKEYMNLSRIVSMIKNSIFISGKEISYENEKNILVFSKSSSHGQHCVSTVLTSFEAVCDFMLDGLAFRDRKTLSYELGPLFNTEFTKFVKNNASIILESLDSPLKNLVSVINNKLTRLVAKSEVTNWTHSGKEIQDLLMNKQLYYNLLLDKVLESHISEIRS | soluble |
| MNFLSQRYTGKSLHPDETKCYKNFTQTAQKLTHRLAESINHYVNHIDCVINTNLYNRLLAEKKESNHMIYKERETWLEAILNTLPDHVFILDESGRYIESFGGTHHSKTFNAERYIGLQLSDVLSPTKADELMGFIFDVMQDNETKVVKYNLSLHDHLLLPIEELEALENPEEMWFEAIIKPVNAPENANKLVIWSVRDITKTHLLEQRLK | not soluble |
| KGYDSHKIALAQSETEMRNLSHSLAEHATHTFQGADVVLDDIVSFMKWRPHPSPVFNERLRALADNLPQLSDVAILDADGQLTYASVKPVPALDNSDRSYFRYHRANDDHTLLITGPIQSRTSGVWVFVVSRRLETTDGKFFGVVVATIESEYFSTFYKTFDLGPGGSISLLHSDGRLLIQWPSLQTGRDMANMVLFQKALPRSPDGYYLTVSPFDGLTKYLAYRRVSRYPLVVTVARTEDSVLSGWREAVRSD | soluble |
| MGSDKIHHHHHHMNRNNFSHEIIEPIDNLDVNFKLFDDSGSYVANHWHNSLEIIYITSGDLQINMEGYTYNLKANECMFINSGIIHSTRCIYQNTSILLQVPLSFLNKYIPDFKNCYFDFKVNANDNNYKKNSSKVKLILENMREIKLSSPPAANLLFTSLLFELLFELYTNFKISVGNKNMKKTVLDLSKFEPVLEYTKINYKMPISINKIAKVAHLQPEYFCRKFKQYMGQTYLEYLNDVRISHIYKDLINTNDTLCSILEAHGFTNTKLFYRIFKEKFKCTPKHIRKKST | not soluble |
| MGSDKIHHHHHHMKPLAYRMRPQSIDQVVGQQHLVGPKKIIRRMVEARQLSSMILYGPPGIGKTSIASAIAGSSKYAFRQLNAATDGQKELSQVAAEGKMSGTVVLLLDEIHRLNKVKQDFLLPLLESGQVIMIGATTENPYLAISPAIRSRCQIFELKPLTEEEILTAVDRALTDEERGLGKYHAKLTKEAGEFLAQKGNGDLRATLNSLELAVLSTKQELEAEGKDASSLTVTLDDMADSLQMKIQNFDADGDGHYDLLSAFQKSIRGSDTDAGLHYLGRLLESGDLVSICRRLSVIAYEDIGLANPPACERVILAVQAAQQLGLPEARIPLANAVIELCLSPKSNSAMTAIDAALADIRQSNVGQIPDQLKDAHYKGASKLGHGTGYLYPHDYPGDWVAQAYLPDRMQGKQYFAPKGESKFEAAFKSQYQRLHDLQKAGLKGK | not soluble |
| MSLGTPSEPTSTLESDIFDDLSLYYLEDVFLSATTPSPTFDLSDPSDPSLSDSFDSEWSPMTPCSIERPETSTSSIFSFEARPIKTPPPAEYLRLPTFLSTNNSGFFDSVVASDFNLYGKFNDWLNDSKPRSGSFAIESAEELARNPRETRSEPEVPSLFKRREYGCGYCRSVGYMRWETHTRKKCDKLSSLAPCKICGARGEMNHTETYCPMKPSSQLFFNEDFSRDFENRRFQRSRYQFYKHSSLIQKIYASSEDSF | not soluble |
| MKKEEAKDIPIGGEIAVRQTGVPYGWLYRRTEPGYLLANGIALLECERDSAGRYKGGAGLDGMYLQTGRLYVPVLAGDGNVRAFQEVIPENYLAAAEMSVEGNYNQIDGIINNEPPKPSVLDALNQCREDAAKGRDAPENPPRGQEVER | not soluble |
| MGSDKIHHHHHHMRLAAATGFSFVGLRVIAVTPNERVYDLSPGSPLLAATQQALKETALYVLDTEFLQVNADTTREAWLPALEAAGALGAKTFTIAAGDDNIAPLTDTIGAMVDDARDFGVTPALEPISYRSVHSIPQAAAIARDSGGKVVADTLHMARFGATPEELTDVTDVLGVLQLCDSPLQRPADLDGLVTESRSLRLAPGEGEQNLLTFVNALDSNVPLSVETPNDGEVASRGDAGWINHLYNTTQALLEKIEEAV | not soluble |
| MMSISQLLGCISKQVDGQYIAQYEELTLRSVFQPIYKKDLSIIGLEALVRISTADGSMIRPDLFFQSPSISEHVQLNVERLSRLIHIKNFGQSRYRNKKLFLNVLPRAAEMLAKDLSYSHLLKQVICEADLCREQIVMELVELSAGDESFLYKATKELSDGGFKLAIDDYGINASTIERVKCVRPDIIKMDRSLLLKYEDGDFSALIEALALAKELSSKTVIEGIETEHQLNLMKKLGFDMYQGYLLAMPQTLEMYEEAKTA | not soluble |
| MSLSLLLSILCMTQAKDRIVERPPFLAQSSSSIEIDKIVMSDTVTTVYIKAFYRPKYWIKIATGSVLKDNNGNLYPVRKGIGITLDKEFWMPESGEAEFQLTFPPIPQNVTCLDFSEGDFEGAYKIWGIQLDKKTFSKFKLPKDVTVTKADHKTTLPEPVVKYAKAILKGRILDYQKGMPNKGSLYFQDVIRDEAQEGKIRIQDDGTFYHEMNVFMVTPCMIRFPFGAVSYLLAPGETTSVVINLRENARKQSHLRQAEKPYGKEIYYGGYLAGVQQELADHPMSFSFTEGNSYEEYQQQIKKLNGKTAEEYKAQILARLPEFRKQITQSKGSPAYKEIINTDLELSAALKIIETERNLKLVHIMTNGLEGEKANKYYAETKIDIPQGYYESLQDFTYILSPKACYNSRYPILFDIIRRIGIDDKILKSLSNHTAASYLIQNPKAQMIGVSMRDLNPLNDKQKAELSTMPAAYNDMALAMNNDLLKQIEINKKKTGFTVNETGEVSNEDLFPSIISKFRGHTLLVDFWATWCGPCRSANKQILPMKEELKDKDIIYLYITGETSPLGTWKNMIPDIHGEHFRVTDEQWSYLREKFSIRGVPTYFVIDKEGNITYKQTGFPGVDTMKEQLMKALEKEGHHHHHH | soluble |
| MKNAFFVTASIACGKSTFIEIANSLGFKSISADKIAHKILDENALELEKIFSPFSLKNLLKKEKKIDRKILGEIVFNNKEAKKILENFTHPKIRAKILEQMQILDKENKAFFVEIPLFFESGAYENLGKVIVIYTPKELSLKRIMQRDKLSLEAAKARLDSQIDIEEKLKKADFIIKNTNSYADFRQECVKVIQEISKGNM | not soluble |
| ATQSPGDSRRLSIQRAIQSLVHAAQCRNANCSLPSCQKMKRVVQHTKGCKRKTNGGCPICKQLIALAAYHAKHCQENKCPVPFCLNIKQKLRQQQLQHRLQQAQMLRRRMASMQ | soluble |
| MKDPDRWMDVKEFLPLLAQKEWYTKTRFGYARGHEPVVYVQNIRRYYDVLVRITEPDAPSASGLEDQLAWLEHHHHHH | not soluble |
| MVKSIVILIETVTMKIPAVYSDGSFKTFNDSETTAQKLVDSGVVNTFAFGPTLVENGKVAVSENEEVGQDMADNPRTAIVVNEESDRSVHYIVIVSDGRTSESSGLTLYEMAELMKSYGVMTGYNLDVGDSSTMYSNGQVINKPTRKRKQNLRKGGERYRLHRLLKNLLASTFSPPILVLEHHHHHH | soluble |
| MTESDVDSGSKKYLSNHKGIFIHVTLEELKRYHQLTPEQKRLIRAIVKTLIHNPQLLDESSYLYRLLASKAISQFVCPLCLMPFSSSVSLKQHIRYTEHTKVCPVCKKEFTSTDSALDHVCKKHNICVS | soluble |
| MHHHHHHSSGRENLYFQGIRMSQILEPRSEEDWTAHRTRIVCTMGPACWNVDTLVKMIDAGMNVCRLNFSHGDHETHARTVQNIQEAMKQRPEARLAILLDTKGPEIRTGFLKDHKPITLQQGATLKIVTDYNLIGDETTIACSYGALPQSVKPGNTILIADGSLSVKVVEVGSDYVITQAQNTATIGERKNMNLPNVKVQLPVIGEKDKHDILNFGIPMGCNFIAASFVQSADDVRYIRGLLGPRGRHIRIIPKIENVEGLVNFDEILAEADGIMIARGDLGMEIPPEKVFLAQKMMIAKCNVVGKPVITATQMLESMIKNPRPTRAEAADVANAVLDGTDCVMLSGETANGEFPVITVETMARICYEAETCVDYPALYRAMCLAVPPPISTQEAVARAAVETAECVNAAIILALTETGQTARLIAKYRPMQPILALSASESTIKHLQVIRGVTTMQVPSFQGTDHVIRNAIVVAKERELVTEGESIVAVHGMKEEVAGSSNLLKVLTVE | soluble |
